# Measurements as given in the supplement of paper PMC7125110.
# ± gives the standard error. For some of these results: Variants at the floor of the assay were thinned out.
# B1: glmS ribozyme (parent)
# chain: AUAAAAGCGCCAGAACUACAGAAAUGUAGUUGACGAGGAGGAGGUUUAUCGAAUUUUCGGCGGAUGCCUCCAAA
# Assays:
# Details in all cases: with glucosamine-6-phosphate
# glucosamine-6-phosphate [1] = variants of: B1; assay: kcat; higher = faster cleavage; RNA array
# In short: (§1)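 kcat and KM were obtained from weighted Michaelis–Menten fits across concentrations of kobs values. Those came from one- or two-exponential decay fits to per-tile medians normalised to baseline and to non-cleaving reference variants. The variants were barcoded ribozymes transcribed in situ by E. coli RNA polymerase on sequenced MiSeq chips and tracked through a hybridised Cy3 probe at 37 °C, with 40 μM to 10 mM glucosamine-6-phosphate in HEPES/KCl/Mg(OAc)2 buffer flowed in.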
# glucosamine-6-phosphate [2] = variants of: B1; assay: self-cleavage kobs at 160 uM GlcN6P; higher = faster cleavage; RNA array
# In short: as §1
# glucosamine-6-phosphate [3] = variants of: B1; assay: self-cleavage kobs at 640 uM GlcN6P; higher = faster cleavage; RNA array
# In short: as §1
# glucosamine-6-phosphate [4] = variants of: B1; assay: KM; higher = weaker cofactor use; RNA array
# In short: as §1
# glucosamine-6-phosphate [5] = variants of: B1; assay: self-cleavage kobs at 2500 uM GlcN6P; higher = faster cleavage; RNA array
# In short: as §1
# glucosamine-6-phosphate [6] = variants of: B1; assay: self-cleavage kobs at 10000 uM GlcN6P; higher = faster cleavage; RNA array
# In short: as §1
# glucosamine-6-phosphate [7] = variants of: B1; assay: self-cleavage kobs at 40 uM GlcN6P; higher = faster cleavage; RNA array
# In short: as §1
Variant,kcat (glucosamine-6-phosphate [1]),self-cleavage kobs at 160 uM GlcN6P (glucosamine-6-phosphate [2]),self-cleavage kobs at 640 uM GlcN6P (glucosamine-6-phosphate [3]),KM (glucosamine-6-phosphate [4]),self-cleavage kobs at 2500 uM GlcN6P (glucosamine-6-phosphate [5]),self-cleavage kobs at 10000 uM GlcN6P (glucosamine-6-phosphate [6]),self-cleavage kobs at 40 uM GlcN6P (glucosamine-6-phosphate [7])
AUAAAAGCGCCAGAACUACAGAAAUGUAGUUGACCAGGAGGAGGUUUAUCGAAUUUUUGGCGGAUGCCUCCAAA [G35C C58U],< 1e-05 s⁻¹,< 1e-05 s⁻¹,< 1e-05 s⁻¹,–,–,–,–
AUAAAAGCGCCAGAAGUACAGAAAUGUAGUUGACGAGGAGGAGGUAUAUCGAAUUUUCGGCGGAUGCCUCCAAA [C16G U46A],0.000198 ± 1.7e-05 s⁻¹,4.2e-05 ± 2e-05 s⁻¹,9.94e-05 ± 2.2e-05 s⁻¹,0.676 ± 0.18 mM,0.000146 ± 2.2e-05 s⁻¹,0.000213 ± 4.4e-05 s⁻¹,–
AUAAAAGCGCCAGAACUACAGAAAUGUAGUUAACGAGGAGGAGGUUUAUCGAAUUUUCGUCGGAUGCCUCCAAA [G32A G60U],< 1e-05 s⁻¹,< 1e-05 s⁻¹,–,–,–,< 1e-05 s⁻¹,–
AUAAAAGCGCCAGAACUACAGAAAUGUAGUUGACGAGGAGGAGGUUUAUCGAAUUUUCGGCGGAUUCCUACAAA [G66U C70A],7.35e-05 ± 1.3e-05 s⁻¹,–,0.000101 ± 4.5e-05 s⁻¹,–,8.96e-05 ± 3e-05 s⁻¹,6.04e-05 ± 2e-05 s⁻¹,–
AUAAAAGCGCCAGGACUACAGAAAUGUAGUUGACGAGGAGGAGAUUUAUCGAAUUUUCGGCGGAUGCCUCCAAA [A14G G44A],0.00146 ± 0.00055 s⁻¹,4.23e-05 ± 1.4e-05 s⁻¹,0.000664 ± 0.00018 s⁻¹,–,0.00104 ± 0.00021 s⁻¹,0.00102 ± 0.00013 s⁻¹,2.21e-05 ± 9.5e-06 s⁻¹
AUAAAAGCACCAGAACUACAGAAAUGUAGUAGACGAGGAGGAGGUUUAUCGAAUUUUCGGCGGAUGCCUCCAAA [G9A U31A],2.13e-05 ± 6.3e-07 s⁻¹,< 1e-05 s⁻¹,< 1e-05 s⁻¹,–,–,–,< 1e-05 s⁻¹
AUAAAAGCGCCUGAACUACAGAAAUGUAGUUGACGAGGAGGACGUUUAUCGAAUUUUCGGCGGAUGCCUCCAAA [A12U G43C],1.4e-05 ± 1.4e-06 s⁻¹,< 1e-05 s⁻¹,< 1e-05 s⁻¹,6.95 ± 1.5 mM,–,–,–
AUAAAAGCGCCAGAACUACAGAAAUGUAGUUAACGAGGAGGAGGUUUAUCGAAAUUUCGGCGGAUGCCUCCAAA [G32A U54A],0.00386 ± 0.001 s⁻¹,0.000125 ± 2.9e-05 s⁻¹,0.00067 ± 0.00011 s⁻¹,3.52 ± 1.3 mM,0.00157 ± 0.00026 s⁻¹,0.00286 ± 0.00045 s⁻¹,6.3e-05 ± 1.3e-05 s⁻¹
